assay: soluble on expression in E. coli; label from the status in PepcDB or PDB records

Sequence | soluble on expression in E. coli
MGSDKIHHHHHHMLSHEEIVAIAEDLLSKRYGGVQTLSDVEQLNGSGTSAVLRARVANSPFLQQRSVVLKYVPSTGDVFDDSALVREIVSYQFTTSLSEDVRPGPVILAYDIDKRILVISDSGNGDTFADLIDQRTGDQRMQILRNLGQSLGSLHAATADREEDFNILLNRMLAKYPATAEMQKNRDRLLPAAIEVGKKILVDAGVTVPEVVEEFARVARRRLISGRHRAFTPFDLSPDNIIVAERTHFLDYEVAGFRDATFDVACVIAGFPQFVFSRPISDDEVDELIESWVQEVRGIWPNVNNEERLQARIVTALIGWALSSVAFMKLGSISGMLNLLHVTEDGNTTLDVSNLDELLIPRSAEDDELVQQDLHDTFSALQRFAARGLDSRFPEVARFADDVVRLFLKND | not soluble
MHHHHHHSHMHHHHHHSHMSKYAELLAIIEELGKEIRPTYAGSKSAMERLKRGIIHARGLVREALAETERNARS | soluble
MDDKEKNAEVAKAIKLPDLASYMQVVIKQLEIDKKWSAVHTYTYTLKSVTEFYGGKGTPVPIDEAFTSGRLKEYEEWMRLEGTRNKKTDKKRSDRKHGVPKGLSLNTISTYMRTLKAVYNRLADKKILPYNPKLFDNVYTKVESQTKRALDTKQMNTLLHTDIEKLPKEMQCALAYFLLMFLFRGMPFIDLAHLRKQDVKGKYIVYSRHKTGRQITVRIPKEAMKLIEKFKNMNYDSIYLFPILDKKNAAKEQSQKNGKIKKDKELYMNYLRVLRNFNLKLEKIATLLLPDVKLSSYTPRHTWATLAFHAGVNIGIICKALGHSSIKVTETYLKPFENEKVDIANDELIISVVAHNGEKEVA | not soluble
MSMIDIDPPSFQSPRPIAGDDGNRRTVLYGDYTVFSVFQPVFSVSHRRAIGYHASLRAHDSQGNQVPSHDVFTQAARRGDLLELGRLAESLHLGNFHTFDSHDEWLFLSLHPAALMDTVYGDALLANLKALGLPPQRVVLEVPEQAGGETPRFAAIVDGLRKAGFLIALGGFGAKHSNIDRVWHLHPDIVTLDRGILAQASEHSHLERVLPGLVSLLHESGQLVLMGGITTEREALIALECDVDFVQGQYFAGP | not soluble
MGHHHHHHSHMSRRKQGKPQHLSKREFSPEPLEAILTDDEPDHGPLGAPEGDHDLLTCGQCQMNFPLGDILIFIEHKRKQCNGSLCLEKAVDKPPSPSPIEMKKASNPVEVGIQVTPEDDDCLSTSSRRICPKQEHIADKLLHWRGLSSPRSAHGALIPTPGMSAEYAPQGICKDEPSSYTCTTCKQPFTSAWFLLQHAQNTHGLRIYLESEHGSPLTPRVLHTPPFGVVPRELKMCGSFRMEAREPLSSEKI | not soluble
MSPRSPRHDKILQLVRENGFMPIEELARLLDVTPQTIRRDINQLCEANLLRRYHGGAALGNSVENEDYFARKGKFQSEKAHIADMIARSIPDHASLFMSIGTTIEAVAQALTATHKGLRVITNNIHVASIMSTNPDFTAMITSGTVRASDGGITGVATLDFINQFKVDYAIIGVSGIEPDGSLLDFDYREVRVAQAMMNNARHRYLAADHSKFGRNALVRMGHISEFHTVFTDAAPPEPVTKLLEEHNVRLVLSEALEHHHHHH | soluble
MAQDGDRHHIFVSAPPPPPPSSSIPAPSQPNRLEKEPLIDEETDMIDESRATYWKGCEFLKASGLYSSKCELV | not soluble
MDEYRELISVLPLETVEYAFAYGSGAIQQQNEDKSEKMVDFVIVTKNAQEFHRDNILKNPQHYSLLRLMGPKMIEKIQCNFAARVYYNTHVKVGKRKIKYGVISYENVKQDLLDWRWIYISGRLHKPVLEVIKPRQDMCDLVTENRRSALHSSLLLLPESFTLKQLFHKIVGLSYTGDFRMVVGEDKNKINKIVEGNYEELLRVYEPLMNDDARLSVMSPAKLIQDGSTTAIYHRLNLLPSEVLNRIQKNMNRVQKRQRDAEEVIFSLAHRHDVAATVETAIGGIIRPVSLSQTAKNAFSAGVTRSIIYSMAKMSKFLKSK | not soluble
SMAFKIQLDTLGQLPGLLSIYTQISLLYPVSDSSQYPTIVSTFEQGLKRFSEAVPWVAGQVKAEGISEGNTGTSFIVPFEDVPRVVVKDLRDDPSAPTIEGMRKAGYPMAMFDENIIAPRKTLPIGPGTGPDDPKPVILLQLNFIKGGLILTVNGQHGAMDMVGQDAVIRLLSKACRNDPFTEEEMTAMNLDRKTIVPYLENYTIGPEVDHQIVKADVAGGDAVLTPVSASWAFFTFSPKAMSELKDAATKTLDASTKFVSTDDALSAFIWKSASRVRLERIDGSAPTEFCRAVDARPAMGVSNNYPGLLQNMTYHNSTIGEIANESLGATASRLRSELDPASMRQRTRGLATYLHNNPDKSNVSLTADADPSTSVMLSSWAKVGLWDYDFGLGLGKPETVRRPIFEPVESLMYFMPKKPDGEFCAALSLRDEDMDRLKADKEWTKYAQYVG | soluble

Source: the DeepSol protein solubility set
